In patent US20120219551A1 (MacroGenics, published 2012):
Residue numbers refer to the chain shown, from its start. In names and notes the source's numbering stands. Values belong to the binder of their own block, whether it stands above or below them.

Key:
CD16A(V158) = target: T1, CD16A(V158) (human, UniProt P08637 17-208); assay: relative off-rate wt/variant; method not given (BIAcore elsewhere)
T1 construct: extracellular domain; Construct as told for the BIAcore assays of Section 7.7; also called FcγRIIIA 158V; 3aV158

CD32A-G2Ag = target: T2, CD32A-G2Ag (human, UniProt P12318 34-217); assay: as above
T2 construct: extracellular domain; Soluble dimeric protein as told for Section 7.7 (there 131H); also called FcγRIIA-Fc fusion protein; 2aFcagl; not shown: human IgG2 hinge-CH2-CH3 domain
T2 sequence (looked up): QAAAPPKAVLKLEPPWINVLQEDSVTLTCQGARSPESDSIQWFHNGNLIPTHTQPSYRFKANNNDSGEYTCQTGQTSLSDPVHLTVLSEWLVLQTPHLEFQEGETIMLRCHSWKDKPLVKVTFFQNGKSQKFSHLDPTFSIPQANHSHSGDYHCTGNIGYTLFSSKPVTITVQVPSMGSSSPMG

CD32B-G2Ag = target: T3, CD32B-G2Ag (human, UniProt P31994 43-217); assay: as above
T3 construct: extracellular domain; Soluble dimeric protein as told for Section 7.7; also called FcγRIIB-Fc fusion protein; 2bFcagl; not shown: human IgG2 hinge-CH2-CH3 domain
T3 sequence (looked up): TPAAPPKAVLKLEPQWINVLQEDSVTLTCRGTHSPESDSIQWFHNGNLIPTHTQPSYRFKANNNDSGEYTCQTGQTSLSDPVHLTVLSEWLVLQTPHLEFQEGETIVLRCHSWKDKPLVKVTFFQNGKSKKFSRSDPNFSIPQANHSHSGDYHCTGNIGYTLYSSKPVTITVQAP

CD16A(F158) = target: T4, CD16A(F158) (human, UniProt P08637 17-208); assay: as above
T4 construct: extracellular domain; Construct as told for the BIAcore assays of Section 7.7; also called 3aF158

CD32A (131R) = target: T5, CD32A (131R) (human, UniProt P12318 34-217); assay: off-rate ratio vs wild-type Fc (BIAcore per the filing's koff tables)
T5 construct: extracellular domain; Soluble dimeric fusion as told for FcγRIIA in section 7.7 (there for 131H); also called FcγRIIA 131R; not shown: hinge-CH2-CH3 domain of human IgG2
T5 sequence (looked up): T2 sequence (looked up) with H134R

CD32B = target: T6, CD32B (human, UniProt P31994 43-217); assay: as above
T6 construct: extracellular domain; Soluble dimeric fusion as told for the ch4D5 BIAcore assays of section 7.7; also called FcγRIIB; FcγRII-B; not shown: hinge-CH2-CH3 domain of human IgG2
T6 sequence (looked up): T3 sequence (looked up)

CD16A (158F) = target: T7, CD16A (158F) (human, UniProt P08637 17-208); assay: as above
T7 construct: extracellular domain; Soluble monomeric construct as told for the ch4D5 BIAcore assays of section 7.7

CD32A (131H) = target: T8, CD32A (131H) (human, UniProt P12318 34-217); assay: as above
T8 construct: extracellular domain; Soluble dimeric fusion as told for the ch4D5 BIAcore assays of section 7.7; also called FcγRIIA 131H; not shown: hinge-CH2-CH3 domain of human IgG2
T8 sequence (looked up): T2 sequence (looked up)

CD16A (158V) = target: T9, CD16A (158V) (human, UniProt P08637 17-208); assay: as above
T9 construct: extracellular domain; Soluble monomeric construct as told for the ch4D5 BIAcore assays of section 7.7; also called FcγRIIIA 158V; FcγRIIIA V158

[1] = target: T10, FcγRIIIA, soluble monomeric protein (extracellular region joined to the linker-AVITAG sequence) (human, UniProt P08637 17-208); assay: ELISA
T10 construct: extracellular domain; also called FcRIIIA; FcR3A

[2] = target: T10, FcγRIIIA, soluble monomeric protein …; assay: ELISA; remark: listed apart in the source
[3] = target: T11, soluble dimeric FcγRIIB-Fc fusion protein (extracellular domain of FcγRIIB fused to hinge-CH2-CH3 of human … (human, UniProt P31994 43-217)); assay: SPR (BIAcore), Fc mutant in ch4-4-20, off rate relative to wild type
T11 construct: extracellular domain; also called FcRIIB-Fc; 2bfcagl; not shown: human IgG2 hinge-CH2-CH3
T11 sequence (looked up): T3 sequence (looked up)

T7 sequence (P08637 17-208): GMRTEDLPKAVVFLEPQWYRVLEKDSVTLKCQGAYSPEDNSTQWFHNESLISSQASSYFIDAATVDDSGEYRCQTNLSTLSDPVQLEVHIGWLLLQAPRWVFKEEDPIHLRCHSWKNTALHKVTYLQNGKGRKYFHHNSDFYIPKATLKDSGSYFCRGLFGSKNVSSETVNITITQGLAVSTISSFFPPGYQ
T4 sequence (P08637 17-208): as above
T1 sequence (P08637 17-208 F176V): as the sequence (P08637 17-208) above, with F160V counted along it
T10 sequence (P08637 17-208 F176V limits assumed, form in doubt): as the sequence (P08637 17-208) above, with F160V counted along it
T9 sequence (P08637 17-208 F176V): as the sequence (P08637 17-208) above, with F160V counted along it

B1: Antibody 2B6 3.5 Fc Variant 49 (F243L, R292P, Y300L, V305I, P396L) (antibody)
heavy: QVQLVQSGAEVKKPGASVKVSCKASGYTFTNYWIHWVRQAPGQGLEWIGVIDPSDTYPNYNKKFKGRVTMTVDTSTSTAYMELRSLRSDDTAVYYCARNGDSDYYSGMDYWGQGTTVTVSSASTKGPSVFPLAPSSKSTSGGTAALGCLVKDYFPEPVTVSWNSGALTSGVHTFPAVLQSSGLYSLSSVVTVPSSSLGTQTYICNVNHKPSNTKVDKRVEPKSCDKTHTCPPCPAPELLGGPSVFLLPPKPKDTLMISRTPEVTCVVVDVSHEDPEVKFNWYVDGVEVHNAKTKPPEEQYNSTLRVVSILTVLHQDWLNGKEYKCKVSNKALPAPIEKTISKAKGQPREPQVYTLPPSRDELTKNQVSLTCLVKGFYPSDIAVEWESNGQPENNYKTTPLVLDSDGSFFLYSKLTVDKSRWQQGNVFSCSVMHEALHNHYTQKSLSLSPGK
light: EIVLTQSPDFQSVTPKEKVTFTCRTSQSIGTNIHWYQQKPDQSPKLLIKEVSESISGVPSRFSGSGSGTDFTLTINSLEAEDAATYYCQQSNTWPFTFGGGTKVEIKRTVAAPSVFIFPPSDEQLKSGTASVVCLLNNFYPREAKVQWKVDNALQSGNSQESVTEQDSKDSTYSLSSTLTLSKADYEKHKVYACEVTHQGLSSPVTKSFNRGEC
notes: Fc variant of m46; also called h2B6 3.5 0088; copies: 2 + 2
Koff ratio (wt/mut) (CD16A(V158)): 10.1 wt/mut | Koff ratio (wt/mut) (CD32A-G2Ag): 1.4 wt/mut | Koff ratio (wt/mut) (CD32B-G2Ag): 3.2 wt/mut | Koff ratio (wt/mut) (CD16A(F158)): 8.3 wt/mut

B4: ch4D5 Fc variant L235P, F243L, R292P, Y300L, P396L (antibody)
heavy: QVQLQQSGPELVKPGASLKLSCTASGFNIKDTYIHWVKQRPEQGLEWIGRIYPTNGYTRYDPKFQDKATITADTSSNTAYLQVSRLTSEDTAVYYCSRWGGDGFYAMDYWGQGASVTVSSASTKGPSVFPLAPSSKSTSGGTAALGCLVKDYFPEPVTVSWNSGALTSGVHTFPAVLQSSGLYSLSSVVTVPSSSLGTQTYICNVNHKPSNTKVDKRVEPKSCDKTHTCPPCPAPELPGGPSVFLLPPKPKDTLMISRTPEVTCVVVDVSHEDPEVKFNWYVDGVEVHNAKTKPPEEQYNSTLRVVSVLTVLHQDWLNGKEYKCKVSNKALPAPIEKTISKAKGQPREPQVYTLPPSRDELTKNQVSLTCLVKGFYPSDIAVEWESNGQPENNYKTTPLVLDSDGSFFLYSKLTVDKSRWQQGNVFSCSVMHEALHNHYTQKSLSLSPGK
light: DIVMTQSHKFMSTSVGDRVSITCKASQDVNTAVAWYQQKPGHSPKLLIYSASFRYTGVPDRFTGSRSGTDFTFTISSVQAEDLAVYYCQQHYTTPPTFGGGTKVEIKRTVAAPSVFIFPPSDEQLKSGTASVVCLLNNFYPREAKVQWKVDNALQSGNSQESVTEQDSKDSTYSLSSTLTLSKADYEKHKVYACEVTHQGLSSPVTKSFNRGEC
notes: One of the series of variants of ch4D5-FcMT2
Wild-Type Koff/Mutant Koff (CD32A (131R)): 0.2 | Wild-Type Koff/Mutant Koff (CD32B): 0.2 | Wild-Type Koff/Mutant Koff (CD16A (158F)): 2.5 | Wild-Type Koff/Mutant Koff (CD32A (131H)): 0.7

B6: Fc variant K334E, T359N, T366S (antibody)
chain: ASTKGPSVFPLAPSSKSTSGGTAALGCLVKDYFPEPVTVSWNSGALTSGVHTFPAVLQSSGLYSLSSVVTVPSSSLGTQTYICNVNHKPSNTKVDKKVEPKSCDKTHTCPPCPAPELLGGPSVFLFPPKPKDTLMISRTPEVTCVVVDVSHEDPEVKFNWYVDGVEVHNAKTKPREEQYNSTYRVVSVLTVLHQDWLNGKEYKCKVSNKALPAPIEETISKAKGQPREPQVYTLPPSRDELNKNQVSLSCLVKGFYPSDIAVEWESNGQPENNYKTTPPVLDSDGSFFLYSKLTVDKSRWQQGNVFSCSVMHEALHNHYTQKSLSLSPGK
ELISA binding, fold vs WT [1]: 1.5 fold | fold change vs WT [2]: 1.5 fold

B7: ch4-4-20 MgFc66 (A330V, V427M) (antibody)
chain 1: not shown
chain 2: DVVMTQTPLSLPVSLGDQASISCRSSQSLVHSNGNTYLRWYLQKPGQSPKVLIYKVSNRFSGVPDRFSGSGSGTDFTLKISRVEAEDLGVYFCSQSTHVPWTFGGGTKLEIKRTVAAPSVFIFPPSDEQLKSGTASVVCLLNNFYPREAKVQWKVDNALQSGNSQESVTEQDSKDSTYSLSSTLTLSKADYEKHKVYACEVTHQGLSSPVTKSFNRGEC
Koff WT/Mut [3]: 0.62

The remaining lines, values ahead:

Wild-Type Koff/Mutant Koff (CD32A (131R)): 0.4 | Wild-Type Koff/Mutant Koff (CD32B): 0.4 | Wild-Type Koff/Mutant Koff (CD16A (158F)): 4.8 | Wild-Type Koff/Mutant Koff (CD32A (131H)): 1.3 | Wild-Type Koff/Mutant Koff (CD16A (158V)): 6.1
B2: ch4D5-FcMT2 (antibody, human IgG1, kappa)
heavy: B4 heavy with P238V
light: B4 light
notes: Anti-Her2/neu; also called ch45D4-FcMT2; L235V F243L R292P Y300L P396L

Koff ratio (wt/mut) (CD16A(V158)): 5.3 wt/mut | Koff ratio (wt/mut) (CD32A-G2Ag): 1.3 wt/mut | Koff ratio (wt/mut) (CD32B-G2Ag): 0.5 wt/mut | Koff ratio (wt/mut) (CD16A(F158)): 4.5 wt/mut
B3: ch4D5 Fc Variants 19 and 20 (L235V, F243L, R292P, Y300L, P396L) (antibody)
heavy: B4 heavy with P238V
light: B4 light
notes: copies: 2 + 2

Wild-Type Koff/Mutant Koff (CD32A (131R)): 0.3 | Wild-Type Koff/Mutant Koff (CD32B): 0.3 | Wild-Type Koff/Mutant Koff (CD16A (158F)): 2.8 | Wild-Type Koff/Mutant Koff (CD32A (131H)): 0.9 | Wild-Type Koff/Mutant Koff (CD16A (158V)): 4.2
B5: ch4D5 Fc variant L235T, F243L, R292P, Y300L, P396L (antibody)
heavy: B4 heavy with P238T
light: B4 light
notes: as for B4
